# T1: HMGE D83E (Pantoea stewartii subsp. stewartii, UniProt P54293 1-249, D83E)
# T1 sequence: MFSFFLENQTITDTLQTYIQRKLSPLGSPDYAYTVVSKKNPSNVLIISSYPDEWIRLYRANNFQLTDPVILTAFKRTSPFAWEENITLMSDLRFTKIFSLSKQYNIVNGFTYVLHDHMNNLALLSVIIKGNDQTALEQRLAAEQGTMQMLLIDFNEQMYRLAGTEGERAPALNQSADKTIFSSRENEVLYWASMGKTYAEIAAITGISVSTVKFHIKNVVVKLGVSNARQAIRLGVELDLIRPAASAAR
# T2: HMGE F94Y (Pantoea stewartii subsp. stewartii, UniProt P54293 1-249, F94Y)
# T2 sequence: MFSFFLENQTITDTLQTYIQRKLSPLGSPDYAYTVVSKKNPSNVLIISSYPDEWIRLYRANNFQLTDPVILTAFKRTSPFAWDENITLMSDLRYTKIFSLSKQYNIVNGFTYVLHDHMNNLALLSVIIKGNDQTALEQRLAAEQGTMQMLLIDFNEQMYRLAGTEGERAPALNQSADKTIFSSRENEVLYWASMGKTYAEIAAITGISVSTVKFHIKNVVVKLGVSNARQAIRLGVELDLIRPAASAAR
# T3: HMGE A32V (Pantoea stewartii subsp. stewartii, UniProt P54293 1-249, A32V)
# T3 sequence: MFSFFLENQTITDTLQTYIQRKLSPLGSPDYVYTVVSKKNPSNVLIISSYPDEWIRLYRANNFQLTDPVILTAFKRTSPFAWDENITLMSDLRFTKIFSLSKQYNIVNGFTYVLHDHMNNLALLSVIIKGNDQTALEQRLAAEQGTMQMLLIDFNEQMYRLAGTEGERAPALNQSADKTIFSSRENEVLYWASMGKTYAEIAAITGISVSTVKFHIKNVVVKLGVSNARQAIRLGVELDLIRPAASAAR
# T4: HMGE (His6-MBP-TEV-Gly5-EsaR wild type) (Pantoea stewartii subsp. stewartii, UniProt P54293 1-249)
# T4 sequence: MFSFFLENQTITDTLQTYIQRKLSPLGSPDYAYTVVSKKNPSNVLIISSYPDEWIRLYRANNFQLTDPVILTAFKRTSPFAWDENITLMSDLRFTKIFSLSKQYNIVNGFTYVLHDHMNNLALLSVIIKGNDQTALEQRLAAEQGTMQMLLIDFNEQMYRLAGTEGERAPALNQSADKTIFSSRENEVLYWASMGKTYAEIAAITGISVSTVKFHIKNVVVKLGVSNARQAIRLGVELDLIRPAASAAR
# Assays:
# Details in all cases: protein: recombinant; tags: N-terminal His6-MBP-TEV-Gly5; chain copies: 2; label: 5' TAMRA on strand 1; blunt
# [1] = target: T1, HMGE D83E; assay: fluorescence anisotropy; 1 uM AHL; 150 mM NaCl, 6 mM HEPES, 17.5 mM Tris, 3% glycerol, pH 7.6, 25 C, 20 min; 3 nM T-esabox, 0-100 nM protein
# [2] = target: T2, HMGE F94Y; assay: as above
# [3] = target: T3, HMGE A32V; assay: as above
# [4] = target: T4, HMGE (His6-MBP-TEV-Gly5-EsaR wild type); assay: as above
# [5] = target: T1, HMGE D83E; assay: fluorescence anisotropy; no AHL; 150 mM NaCl, 6 mM HEPES, 17.5 mM Tris, 3% glycerol, pH 7.6, 25 C, 20 min; 3 nM T-esabox, 0-100 nM protein
# [6] = target: T2, HMGE F94Y; assay: as above
# [7] = target: T3, HMGE A32V; assay: as above
# [8] = target: T4, HMGE (His6-MBP-TEV-Gly5-EsaR wild type); assay: as above
binder,measurement,setting,value
T-esabox (PesaR28 TAMRA/PesaR28R) (dsDNA) DNA 1: TCTTGCCTGTACTATAGTGCAGGTTAAG DNA 2: CTTAACCTGCACTATAGTACAGGCAAGA,Kd,[1],2.91 ± 0.58 nM
same,Kd,[2],2.65 ± 1.03 nM
same,Kd,[3],2.33 ± 1.06 nM
same,Kd,[4],6.19 ± 1.31 nM
same,Kd,[5],4.01 ± 1.13 nM
same,Kd,[6],3.26 ± 0.93 nM
same,Kd,[7],2.18 ± 0.73 nM
same,Kd,[8],3.11 ± 0.33 nM

# Source: publication PMC4169570, “Acyl-Homoserine Lactone Recognition and Response Hindering the Quorum-Sensing Regulator EsaR”
